Experimental data published in article PMC11589570, “Critical assessment of LC3/GABARAP ligands used for degrader development and ligandability of LC3/GABARAP binding pockets” (Nature Communications, 2024).

Key:
Assay in all cases: FP
LC3C_(1-126) (human) = LC3C_(1-126) (human) (UniProt Q9BXW4)
[1] = target: GABARAPL2_(1-117) (human) (UniProt P60520)
LC3A_(1-120) (human) = LC3A_(1-120) (human) (UniProt Q9H492)

Chain of GABARAPL2_(1-117) (human) (P60520 whole entry): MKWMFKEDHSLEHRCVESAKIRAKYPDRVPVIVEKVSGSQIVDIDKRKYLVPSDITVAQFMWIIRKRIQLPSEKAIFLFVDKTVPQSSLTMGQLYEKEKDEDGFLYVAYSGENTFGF
Chain of LC3C_(1-126) (human) (Q9BXW4 1-126): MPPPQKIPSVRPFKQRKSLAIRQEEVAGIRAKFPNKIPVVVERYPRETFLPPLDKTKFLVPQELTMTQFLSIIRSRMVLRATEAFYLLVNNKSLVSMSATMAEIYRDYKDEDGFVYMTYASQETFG

Ki (LC3C_(1-126) (human)): 84.3 µM
Ki [1]: 26.2 µM
Ki (LC3A_(1-120) (human)): 179 µM
Substance: PCM1-LIR
